Experimental data: patent US20160168268A1 (University of California, published 2016)

Target: T1, human IgE (human, UniProt P01854-1 1-428, FITC label in the BMMC experiments)
T1 construct: also called standard IgE; myeloma IgE
Experiment: method not stated

T1 sequence (P01854 other isoform, or with tags, fused parts or gaps): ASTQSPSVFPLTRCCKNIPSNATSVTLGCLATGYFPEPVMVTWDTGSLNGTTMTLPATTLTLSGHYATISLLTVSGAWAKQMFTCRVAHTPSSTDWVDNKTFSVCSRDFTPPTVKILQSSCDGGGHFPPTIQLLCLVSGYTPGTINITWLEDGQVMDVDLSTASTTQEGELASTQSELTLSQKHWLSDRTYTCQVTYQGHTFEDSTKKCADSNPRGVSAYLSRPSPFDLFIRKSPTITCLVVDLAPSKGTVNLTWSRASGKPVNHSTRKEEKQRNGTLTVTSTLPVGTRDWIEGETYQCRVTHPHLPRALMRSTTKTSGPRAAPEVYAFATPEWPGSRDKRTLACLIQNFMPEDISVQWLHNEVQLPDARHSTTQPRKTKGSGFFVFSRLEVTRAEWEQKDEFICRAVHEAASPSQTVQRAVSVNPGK

- Kd: 2540 nM
B1: monoclonal anti-human IgE antibody P6.2 (antibody, V domains shown)
VH: QVQLQQSGAELVRPGTSVKVSCKASGYAFTNYLIEWVKQRPGQGLEWIGVINPGSGFTKYNEKFKGKATLTADKSSSTAYMHLSSLTSDDSAVYFCAREDVYSWFAYWGQGTLVTVSA
VL: DIVLTQSPASLAVSLGQRATISCRASESVDSYGNSFMHWYQQKPGQPPKLLIYRTSNLESGIPARFSGSGSRTDFTLTINPVEADDVATYFCQQSYEDPFTFGSGTKLEIK
notes: also called mAb P6.2; mAb 6.2
